Results on two variants are retold here after IntAct's records for PubMed 21151871.

To fix the notation:
B1: Guanylate-binding protein 1 (Homo sapiens), P32455 (parent)
chain: MASEIHMTGPMCLIENTNGRLMANPEALKILSAITQPMVVVAIVGLYRTGKSYLMNKLAGKKKGFSLGSTVQSHTKGIWMWCVPHPKKPGHILVLLDTEGLGDVEKGDNQNDSWIFALAVLLSSTFVYNSIGTINQQAMDQLYYVTELTHRIRSKSSPDENENEVEDSADFVSFFPDFVWTLRDFSLDLEADGQPLTPDEYLTYSLKLKKGTSQKDETFNLPRLCIRKFFPKKKCFVFDRPVHRRKLAQLEKLQDEELDPEFVQQVADFCSYIFSNSKTKTLSGGIQVNGPRLESLVLTYVNAISSGDLPCMENAVLALAQIENSAAVQKAIAHYEQQMGQKVQLPTETLQELLDLHRDSEREAIEVFIRSSFKDVDHLFQKELAAQLEKKRDDFCKQNQEASSDRCSALLQVIFSPLEEEVKAGIYSKPGGYRLFVQKLQDLKKKYYEEPRKGIQAEEILQTYLKSKESMTDAILQTDQTLTEKEKEIEVERVKAESAQASAKMLQEMQRKNEQMMEQKERSYQEHLKQLTEKMENDRVQLLKEQERTLALKLQEQEQLLKEGFQKESRIMKNEIQDLQTKMRRRKACTIS
partner: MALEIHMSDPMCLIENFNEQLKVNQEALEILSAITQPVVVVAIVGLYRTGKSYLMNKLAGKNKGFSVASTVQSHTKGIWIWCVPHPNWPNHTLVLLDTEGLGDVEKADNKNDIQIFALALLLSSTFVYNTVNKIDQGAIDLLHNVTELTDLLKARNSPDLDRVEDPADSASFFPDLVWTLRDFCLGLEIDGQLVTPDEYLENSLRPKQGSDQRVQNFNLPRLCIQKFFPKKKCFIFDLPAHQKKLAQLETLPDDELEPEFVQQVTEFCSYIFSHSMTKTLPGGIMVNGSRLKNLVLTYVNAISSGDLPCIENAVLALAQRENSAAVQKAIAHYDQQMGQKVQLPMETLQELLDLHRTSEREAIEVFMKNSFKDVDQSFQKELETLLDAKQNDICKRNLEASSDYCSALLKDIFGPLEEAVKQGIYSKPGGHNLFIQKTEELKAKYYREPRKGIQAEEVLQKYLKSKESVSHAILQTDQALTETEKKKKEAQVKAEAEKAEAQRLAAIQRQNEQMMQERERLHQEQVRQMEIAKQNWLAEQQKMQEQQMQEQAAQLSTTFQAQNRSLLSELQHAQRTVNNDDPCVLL
B2: Guanylate-binding protein 1 (Homo sapiens), P32455 (parent)
chain: B1 chain
partner: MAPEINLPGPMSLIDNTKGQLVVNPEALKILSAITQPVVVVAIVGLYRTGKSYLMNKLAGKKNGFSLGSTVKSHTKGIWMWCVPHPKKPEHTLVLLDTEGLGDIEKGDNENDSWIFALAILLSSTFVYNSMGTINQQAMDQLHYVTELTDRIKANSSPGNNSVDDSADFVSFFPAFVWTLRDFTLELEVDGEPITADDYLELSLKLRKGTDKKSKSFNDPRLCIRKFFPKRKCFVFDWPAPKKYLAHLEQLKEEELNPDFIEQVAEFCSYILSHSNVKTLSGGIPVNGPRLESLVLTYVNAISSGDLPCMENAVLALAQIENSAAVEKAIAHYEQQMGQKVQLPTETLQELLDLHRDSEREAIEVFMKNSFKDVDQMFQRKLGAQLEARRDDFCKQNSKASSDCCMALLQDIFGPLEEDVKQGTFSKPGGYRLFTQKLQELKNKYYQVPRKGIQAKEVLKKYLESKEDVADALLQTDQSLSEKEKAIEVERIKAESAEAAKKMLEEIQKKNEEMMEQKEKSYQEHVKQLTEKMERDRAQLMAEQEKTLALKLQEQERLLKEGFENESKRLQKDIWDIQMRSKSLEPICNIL

One assay covers variants of B1. To be noted: with gbp5_human GBP5, Q96PP8.
On to MASEIHMTGPMCLIENTNGRLMANPEALKILSAITQPMVVVAIVGLYRTGASYLMNKLAGKKKGFSLGSTVQSHTKGIWMWCVPHPKKPGHILVLLDTEGLGDVEKGDNQNDSWIFALAVLLSSTFVYNSIGTINQQAMDQLYYVTELTHRIRSKSSPDENENEVEDSADFVSFFPDFVWTLRDFSLDLEADGQPLTPDEYLTYSLKLKKGTSQKDETFNLPRLCIRKFFPKKKCFVFDRPVHRRKLAQLEKLQDEELDPEFVQQVADFCSYIFSNSKTKTLSGGIQVNGPRLESLVLTYVNAISSGDLPCMENAVLALAQIENSAAVQKAIAHYEQQMGQKVQLPTETLQELLDLHRDSEREAIEVFIRSSFKDVDHLFQKELAAQLEKKRDDFCKQNQEASSDRCSALLQVIFSPLEEEVKAGIYSKPGGYRLFVQKLQDLKKKYYEEPRKGIQAEEILQTYLKSKESMTDAILQTDQTLTEKEKEIEVERVKAESAQASAKMLQEMQRKNEQMMEQKERSYQEHLKQLTEKMENDRVQLLKEQERTLALKLQEQEQLLKEGFQKESRIMKNEIQDLQTKMRRRKACTIS [K51A], for which the “effect of a mutation on the interaction” value is “disrupting interaction strength”.

In a further assay the parent is B2. The note with it: with gbp2_human GBP2, P32456.
In the case of MASEIHMTGPMCLIENTNGRLMANPEALKILSAITQPMVVVAIVGLYRTGASYLMNKLAGKKKGFSLGSTVQSHTKGIWMWCVPHPKKPGHILVLLDTEGLGDVEKGDNQNDSWIFALAVLLSSTFVYNSIGTINQQAMDQLYYVTELTHRIRSKSSPDENENEVEDSADFVSFFPDFVWTLRDFSLDLEADGQPLTPDEYLTYSLKLKKGTSQKDETFNLPRLCIRKFFPKKKCFVFDRPVHRRKLAQLEKLQDEELDPEFVQQVADFCSYIFSNSKTKTLSGGIQVNGPRLESLVLTYVNAISSGDLPCMENAVLALAQIENSAAVQKAIAHYEQQMGQKVQLPTETLQELLDLHRDSEREAIEVFIRSSFKDVDHLFQKELAAQLEKKRDDFCKQNQEASSDRCSALLQVIFSPLEEEVKAGIYSKPGGYRLFVQKLQDLKKKYYEEPRKGIQAEEILQTYLKSKESMTDAILQTDQTLTEKEKEIEVERVKAESAQASAKMLQEMQRKNEQMMEQKERSYQEHLKQLTEKMENDRVQLLKEQERTLALKLQEQEQLLKEGFQKESRIMKNEIQDLQTKMRRRKACTIS [K51A], the “effect of a mutation on the interaction” value is recorded as “disrupting interaction strength”.
